Test results reported in US20030143208A1, “Oxidative stress-resistant cell lines and methods of use thereof” (priority 2002, published 2003).
“Also recorded” adds a separate entry of the source.

Columns and labels:
[1] = tested on: TH in cultured dopaminergic neurons; details: cultured dopaminergic neurons after MPP+ challenge; Pong et al. (22); cited from earlier work
[2] = biological target: T1, tyrosine hydroxylase (TH) (Rattus norvegicus, UniProt P04177, Y423F); assay: Tyrosine hydroxylase activity assay ([3H]H2O release from [3H]tyrosine) of wt- and mutant-TH, with and without peroxynitrite treatment; format: biochemical
T1 construct: E. coli expressing the full-length wt-TH, Y423F-TH, Y428F-TH, or Y432F-TH cDNAs; made in house; host or cells: BL21(DE3)pLysS E. coli
Method: (§1) To further confirm the site of nitration in vivo, the tyrosine residues 423, 428, and 432 were individually mutated to Phe. The Tyr423Phe, Tyr428Phe, and Tyr432Phe mutants were created with the QuikChange™ Site-Directed mutagenesis kit from Stratagene as previously described (25). Wild-type rat TH cDNA (GenBank accession no.: NM-012740) was subcloned into the mammalian pcDNA3.1+ expression vector (invitrogen) and used as the DNA template (25 ng) to create the mutants. Complete DNA sequencing data verified the presence of the appropriate mutation in the coding sequences of all recombinant proteins.
(§2) Recombinant wt- and mutant TH were isolated and purified from BL21(DE3)pLysS E. coli expressing the full-length wt-TH, Y423F-TH, Y428F-TH, or Y432F-TH cDNAs. Following isolation enzyme activity was assayed after treatment with peroxynitrite as previously described (25 and 26). Briefly, wt- or mutant-TH were exposed to several concentrations of peroxynitrite under identical conditions, in phosphate buffer 0.1 M containing DTPA 0.1 mM at pH 7.4. The activity of TH was assayed by the release of [^3H]H2O from [^3H]tyrosine in the presence of catalase. The specific activity of the partially purified Tyr423Phe mutant TH was 20% of the wild type TH. It is also shown that the enzyme activity of the wild type, and the Tyr428Phe and Tyr432Phe mutants were inhibited by exposure to nitrating and oxidizing concentrations of peroxynitrite (FIG. 3A). […] Enzymatic activity was assessed using a standard assay and the Lovenberg assay as described in (26) (FIGS. 3B and 3C).

[3] = tested on: tyrosine hydroxylase (TH); assay: as above; format: biochemical, rat; details: nitrating and oxidizing concentrations of peroxynitrite, phosphate buffer 0.1 M, DTPA 0.1 mM, pH 7.4, FIG. 3A
Method: as §1, §2

[4] = biological target: tyrosine hydroxylase (TH) (Rattus norvegicus, UniProt P04177); assay: Nitration of TH by peroxynitrite in vitro; format: biochemical; details: recombinantly purified TH treated with peroxynitrite in vitro
Description: Cysteine, methionine, tryptophan and tyrosine appear to be the principal amino acids in proteins modified by peroxynitrite in vitro (9-14). To resolve the apparent differences, the reaction of peroxynitrite with recombinantly purified rat TH in vitro was re-examined and no evidence of cysteine oxidation was found. Oxidation of one cysteine residue per molecule of TH was observed only at high peroxynitrite concentrations, and three cysteine residues were oxidized in partially unfolded protein.

T1 sequence (P04177 2-498 Y423F): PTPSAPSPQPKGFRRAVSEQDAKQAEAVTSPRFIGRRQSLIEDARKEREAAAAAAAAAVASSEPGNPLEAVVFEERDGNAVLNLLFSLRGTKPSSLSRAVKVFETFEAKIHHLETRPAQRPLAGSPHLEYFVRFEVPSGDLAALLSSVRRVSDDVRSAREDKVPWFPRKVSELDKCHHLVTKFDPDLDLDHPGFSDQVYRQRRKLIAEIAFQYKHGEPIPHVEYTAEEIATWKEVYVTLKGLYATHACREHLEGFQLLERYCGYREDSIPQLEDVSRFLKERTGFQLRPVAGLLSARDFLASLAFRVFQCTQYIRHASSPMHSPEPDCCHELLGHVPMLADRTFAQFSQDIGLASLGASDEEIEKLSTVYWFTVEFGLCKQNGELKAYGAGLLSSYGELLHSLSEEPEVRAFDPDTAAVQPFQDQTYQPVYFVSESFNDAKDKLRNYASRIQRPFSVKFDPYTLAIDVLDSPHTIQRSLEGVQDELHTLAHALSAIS
Sequence of tyrosine hydroxylase (TH) (Rattus norvegicus, UniProt P04177) (P04177 whole entry): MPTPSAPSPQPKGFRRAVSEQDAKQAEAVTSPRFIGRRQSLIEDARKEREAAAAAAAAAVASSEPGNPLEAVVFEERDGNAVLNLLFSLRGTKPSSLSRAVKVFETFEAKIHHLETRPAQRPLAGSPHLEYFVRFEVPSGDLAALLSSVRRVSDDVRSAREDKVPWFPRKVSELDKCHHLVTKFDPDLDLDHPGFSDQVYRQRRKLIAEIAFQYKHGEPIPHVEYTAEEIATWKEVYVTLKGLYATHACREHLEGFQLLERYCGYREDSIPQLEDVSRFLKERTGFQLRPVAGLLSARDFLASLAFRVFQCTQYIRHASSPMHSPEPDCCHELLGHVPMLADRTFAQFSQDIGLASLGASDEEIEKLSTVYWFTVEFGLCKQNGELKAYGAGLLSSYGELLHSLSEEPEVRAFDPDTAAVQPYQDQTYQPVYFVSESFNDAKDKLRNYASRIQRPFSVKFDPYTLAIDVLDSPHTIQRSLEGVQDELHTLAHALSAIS

Compound: COc1cccc(C=NCCN=Cc2cccc(OC)c2[O-])c1[O-].[Cl-].[Mn+3] [EUK134]
- nitration of TH [1]: prevented nitration of TH

Compound: Tyr423Phe mutant TH: rat tyrosine hydroxylase in which Tyr423 was substituted with Phe
- resistance to inactivation by different concentrations of peroxynitrite compared to wild type TH, Lovenberg assay ([2]; cell lysates, Lovenberg assay, FIG. 3C): resist inactivation
- resistance to inactivation by different concentrations of peroxynitrite compared to wild type TH ([2]; cell lysates, standard assay, FIG. 3B): resist inactivation
- specific activity relative to wild type TH ([2]; partially purified protein, % of the wild type TH): 20%
- TH enzymatic activity after exposure to peroxynitrite ([3]; listed as Tyr423 Phe mutant): no significant loss of enzymatic activity
- TH enzymatic activity after exposure to peroxynitrite ([3]; listed as Tyr423Phe mutant): no loss in TH enzymatic activity; also recorded: unaffected
- nitration by peroxynitrite [4]: lack of nitration

Compound: Tyr428Phe: rat tyrosine hydroxylase mutant with tyrosine residue 428 mutated to Phe
- TH enzymatic activity after exposure to peroxynitrite [3]: inhibited

Compound: Tyr432Phe: rat tyrosine hydroxylase mutant with tyrosine residue 432 mutated to Phe
- TH enzymatic activity after exposure to peroxynitrite [3]: inhibited

Compound: wild type: recombinant wild-type rat tyrosine hydroxylase (GenBank accession no. NM-012740) [reference compound]
- TH enzymatic activity after exposure to peroxynitrite [3]: inhibited
